# Columns and labels:
# AR42J tumor = test: MicroPET imaging in AR42J tumor-bearing mice; format: in vivo; conditions: unlabeled compound injected simultaneously with ^68Ga-DOTA-TATE, PET
# Experimental: ^68Ga-TATE-EB-01 was prepared according to the method in Example 2. […] Results are shown in FIG. 4, FIG. 5, FIG. 6 and FIG. 7.
# in vivo = test: in vivo; design: species or system mice; conditions: mouse, iv, 1.48 Mbq, total radioactivity
# Experimental: Organs and tumor tissues of interest were collected and weighed. The radioactivity was detected by a γ counter, and biological distribution results were calculated as a percent of an injection dose per gram of tissue (% ID/g).
# [1] = in vivo; cited from earlier work
structure (smiles),measurement,setting,value
"Cc1cc(-c2ccc(NC(=O)[C@H](CCCCNC(=O)CCOCCOCCC(=O)N[C@H](Cc3ccccc3)C(=O)N[C@H]3CSSC[C@@H](C(=O)N[C@H](C(=O)O)[C@@H](C)O)NC(=O)[C@H]([C@@H](C)O)NC(=O)[C@H](CCCCN)NC(=O)[C@@H](Cc4c[nH]c5ccccc45)NC(=O)[C@H](Cc4ccc(O)cc4)NC3=O)NC(=O)CN3CCN(CC(=O)O)CCN(CC(=O)O)CCN(CC(=O)O)CC3)c(C)c2)ccc1N=Nc1ccc2c(S(=O)(=O)O)cc(S(=O)(=O)O)c(N)c2c1O (single isomer, unassigned) [TATE-EB-01]",inhibition of tumor uptake of ^68Ga-DOTA-TATE,AR42J tumor,significantly inhibit tumor uptake
"Cc1cc(-c2ccc(NC(=O)[C@H](CCCCNC(=O)CCOCCOCCC(=O)N[C@H](Cc3ccccc3)C(=O)N[C@H]3CSSC[C@@H](C(=O)N[C@H](C(=O)O)[C@@H](C)O)NC(=O)[C@H]([C@@H](C)O)NC(=O)[C@H](CCCCN)NC(=O)[C@@H](Cc4c[nH]c5ccccc45)NC(=O)[C@H](Cc4ccc(O)cc4)NC3=O)NC(=O)CN3CCN(CC(=O)O)CCN(CC(=O)O)CCN(CC(=O)O)CC3)c(C)c2)ccc1N=Nc1ccc2c(S(=O)(=O)O)cc(S(=O)(=O)O)c(N)c2c1O [^177Lu-TATE-EB-01, metal not drawn]",tissue uptake at 72 h,in vivo,158 ± 20 %ID/g
same,tissue uptake at 96 h,in vivo,112 ± 20.6 %ID/g
"Cc1cc(-c2ccc(NC(=O)[C@H](CCCCNC(=O)CCN3C(=O)CC(SCCC(=O)N[C@H](Cc4ccccc4)C(=O)N[C@H]4CSSC[C@@H](C(=O)N[C@H](C(=O)O)[C@@H](C)O)NC(=O)[C@H]([C@@H](C)O)NC(=O)[C@H](CCCCN)NC(=O)[C@@H](Cc5c[nH]c6ccccc56)NC(=O)[C@H](Cc5ccc(O)cc5)NC4=O)C3=O)NC(=O)CN3CCN(CC(=O)O)CCN(CC(=O)O)CCN(CC(=O)O)CC3)c(C)c2)ccc1N=Nc1ccc2c(S(=O)(=O)O)cc(S(=O)(=O)O)c(N)c2c1O (single isomer, unassigned) [^177Lu-EB-TATE, metal not drawn]",half-life in the blood,[1],9.47 h
same,half-life in the blood relative to Lutathera,[1],about 4 times

# Source: patent US20250332299A1, “COMPOUND TARGETING SSTR2, PREPARATION METHOD THEREFOR AND USE THEREOF” (YANTAI LANNACHENG BIOTECHNOLOGY CO., LTD., priority 2022, published 2025)
